Here are results for 14 molecules from patent US20120208867, “HMGB1 BINDING NUCLEIC ACID MOLECULE AND APPLICATIONS THEREOF” (published 2012).

Holding throughout (conditions): tags: N-terminal His-tag
In data set [1] the target is T1, His-tagged HMGB1 (UniProt P09429 P09429:1-215). As to the kind of experiment: SPR; 635 nM protein, 500 mM NaCl. As for the experimental part: (§1) First, a sensor chip (trade name: Sensor Chip SA, manufactured by GE Heathcare) specially made for a BIACORE was set on the aforementioned BLACORE (registered trademark) X. Biotinylate deoxythymidine (5 μmol/L) was injected into the flow cell 2 of the aforementioned sensor chip using a running buffer and subjected to binding until the signal intensity (RU: resonance unit) reached about 1000 RU. For the aforementioned biotinylated deoxythymidine, 20-base-long deoxythymidine in which the 5′ end was biotinylated was used. Then, 10 μg/mL of an RNA aptamer was injected at a flow rate of 20 μL/min for 1 min into the aforementioned flow cells 1 and 2 of the aforementioned chip using a running buffer and subjected to binding until the signal intensity reached about 1000 RU. Next, 675 nmol/L of the aforementioned His-tag-added HMGB1 was injected at a flow rate of 20 μL/min for 30 sec using the aforementioned running buffer, and under the same conditions the aforementioned running buffer was allowed to flow continuously for washing. Simultaneously with the injection of the aforementioned His-tag-added HMGB1 and washing with the aforementioned running buffer, signal intensity was measured. The aforementioned running buffer was composed of 20 mmol/L of HEPES, 500 mmol/L of NaCl, 0.1 mmol/L of MgCl₂, and 0.1% Triton X-100 (registered trademark), with the pH thereof being 7.2. As a blocking agent for suppressing nonspecific binding, tRNA was used in a concentration of 1 mg/mL. In a comparative example, signal intensity was measured in the same manner except that the aforementioned comparative example RNA was used in place of the aforementioned example RNA aptamers.
An analysis of ability to bind to His-tag-added HMGB1 was carried out in the same manner as in (2) above of the aforementioned Example 1 except that the aforementioned RNA aptamers were used, the concentration of the aforementioned His-tag-added HMGB1 was 635 nmol/L, and the injection time of the aforementioned His-tag-added HMGB1 was 60 seconds. […]
For orientation: SPR reads the build-up and loss of mass on a sensor chip optically.

For data set [2], the target named is T1, His-tagged HMGB1. As to the kind of experiment: SPR; superior to R8c6_1; 160 nM protein. As for the experimental part: as §1, with “675 nmol/L of the aforementioned His-tag-added HMGB1 was injected at a flow rate” left out, “The aforementioned running buffer was composed of 20 mmol/L of HEPES, 500 mmol/L of NaCl, 0.1 mmol/L of MgCl₂, and 0.1% Triton X-100 (registered trademark), with the pH thereof being 7.2. As a blocking agent for suppressing nonspecific binding, tRNA was used in a concentration of 1 mg/mL.” left out, “aptamers. […]” for “aptamers.”

Data set [3] addresses T1, His-tagged HMGB1. As to the kind of experiment: SPR; 150 nM protein; excellent binding. As for the experimental part: (§2) The ability of each of the aforementioned RNA aptamers to bind to HMGB1 in which His-tag was added to the N-terminus (His-tag-added HMGB1) was examined. For the analysis of the aforementioned binding ability, a BIACORE (registered trademark) X (manufactured by GE Healthcare) was used according to its instruction manual.
as §1, with “675 nmol/L of the aforementioned His-tag-added HMGB1 was injected at a flow rate” left out

In data set [4] the target is T1, His-tagged HMGB1. The data set can be described thus: SPR; 200 nM protein; comparable to unmodified R8c6_1 at 150 mM NaCl.
In data set [5] the target is T1, His-tagged HMGB1. The data set can be described thus: SPR; 200 nM protein, 150 mM NaCl; excellent binding. Here is the method: as §1, with “675 nmol/L of the aforementioned His-tag-added HMGB1 was injected at a flow rate” left out, “The aforementioned running buffer was composed of 20 mmol/L of HEPES, 500 mmol/L of NaCl, 0.1 mmol/L of MgCl₂, and 0.1% Triton X-100 (registered trademark), with the pH thereof being 7.2. As a blocking agent for suppressing nonspecific binding, tRNA was used in a concentration of 1 mg/mL.” left out, “aptamers. […]” for “aptamers.”

Data set [6] has as its target T1, His-tagged HMGB1. The data set can be described thus: SPR; comparable to unmodified R8c6_1 at 500 and 150 mM NaCl.
In data set [7] the target is T1, His-tagged HMGB1. The data set can be described thus: SPR; 150 nM protein; listed in Table 7. As for the experimental part:
as §2
First, a sensor chip (trade name: Sensor Chip SA, manufactured by GE Heathcare) specially made for a BIACORE was set on the aforementioned BLACORE (registered trademark) X. Biotinylate deoxythymidine (5 μmol/L) was injected into the flow cell 2 of the aforementioned sensor chip using a running buffer and subjected to binding until the signal intensity (RU: resonance unit) reached about 1000 RU. For the aforementioned biotinylated deoxythymidine, 20-base-long deoxythymidine in which the 5′ end was biotinylated was used. […] Simultaneously with the injection of the aforementioned His-tag-added HMGB1 and washing with the aforementioned running buffer, signal intensity was measured. […] In a comparative example, signal intensity was measured in the same manner except that the aforementioned comparative example RNA was used in place of the aforementioned example RNA aptamers.

T1 sequence (P09429 whole entry, one chain of several): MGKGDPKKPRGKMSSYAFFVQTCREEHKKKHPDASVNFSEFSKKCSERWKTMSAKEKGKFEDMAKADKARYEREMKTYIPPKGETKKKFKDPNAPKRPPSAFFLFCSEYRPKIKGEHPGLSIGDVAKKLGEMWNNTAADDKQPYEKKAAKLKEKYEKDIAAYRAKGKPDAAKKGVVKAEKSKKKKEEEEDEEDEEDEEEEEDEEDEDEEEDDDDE

B1: R8c6_1-1 (ssRNA)
RNA: GGGACGCUCACGUACGCUCAGAGUACAGUAAGACACGUAGCACCAGUCUGACGUUUGUCGUCAGUGCCUGGACGUGCAG
For B1, the binding result in the data set with His-tagged HMGB1 [1] is “binds”.

B2: R8c6_1-25 (ssRNA)
RNA: GGGUAAGACACGUAGCACCAGUCUGACGUUUGUCGUCAGUGCCUGGACGUGCAGU
For the molecule B2, the binding result with His-tagged HMGB1 [2] was “binds”.

B3: 2'F-R8c6_1-25 (ssRNA)
RNA: B2 RNA
modifications: 2'-F on all C and U
As for B3, in the data set with His-tagged HMGB1 [3], the binding result is given as “binds”.

B4: 2'F-R8c6_1 (2'F-CU-R8c6_1) (ssRNA)
RNA: GGGACGCUCACGUACGCUCAGAGUACAGUAAGACACGUAGCACCAGUCUGACGUUUGUCGUCAGUGCCUGGACGUGCAGU
modifications: 2'-F on all C and U
Consider B4, for which, in the data set with His-tagged HMGB1 [4], the binding result was “binds”.

B5: 2'F-C-R8c6_1 (ssRNA)
RNA: B4 RNA
modifications: 2'-F on all C
As for B5, in the data set with His-tagged HMGB1 [5], the binding result was “binds”.

B6: 2'F-U-R8c6_1 (ssRNA)
RNA: B4 RNA
modifications: 2'-F on all U
As to B6, in the data set with His-tagged HMGB1 [5], the binding result was “binds”.
For the molecule GGGACAGUAAGACACGUAGCACCAGUGUGCCUGGACGUGCAGU (ssRNA, 2'-F on all C and U) [2'F-R8c6_1-21-S6], the binding result with His-tagged HMGB1 [3] is recorded as “binds”.

B7: 2'F-R8c6_1-18 (ssRNA)
RNA: GGGAGUACAGUAAGACACGUAGCACCAGUCUGACGUUUGUCGUCAGUGCCUGGACGUGCAGU
modifications: 2'-F on all C and U
On to B7, for which the binding result with His-tagged HMGB1 [6] was “binds”.

B8: R8c6_1-3 (ssRNA)
RNA: GGGACGCUCACGUACGCUCAGAGUACAGUAAGACACGUAGCACCAGUCUGACGUUUGUCGUCAGUGCCUGGACGUGC
Consider B8, for which the binding result with His-tagged HMGB1 [1] is on record as “binds”.
Regarding GGGAGUACAGUAAGACACGUAGCACCAGUGUGCCUGGACGUGCAGU (ssRNA, 2'-F on all C and U) [2'F-R8c6_1-18-S6], in the data set with His-tagged HMGB1 [3], the binding result was “binds”.
For GGGUAAGACACGUAGCACCAGUGUGCCUGGACGUGCGU (ssRNA, 2'-F on all C and U) [2'F-R8c6_1-25-S6A3], the binding result with His-tagged HMGB1 [7] was “binds”.
Turning to GGGACAGUAAGACACGUAGCACCAGUGCCUGGACGUGCAGU (ssRNA, 2'-F on all C and U) [2'F-R8c6_1-21-S8], the binding result with His-tagged HMGB1 [3] is on record as “binds”.

B9: R8c6_1-4 (ssRNA)
RNA: GGGACGCUCACGUACGCUCAGAGUACAGUAAGACACGUAGCACCAGUCUGACGUUUGUCGUCAGUGCCUGGACGUG
For the molecule B9, the binding result with His-tagged HMGB1 [1] was “binds”.

B10: R8c6_1-18-S2 (ssRNA)
RNA: GGGAGUACAGUAAGACACGUAGCACCAGUCGCGUUUGUCGCGUGCCUGGACGUGCAGU
Take B10: in the data set with His-tagged HMGB1 [2], the binding result is given as “binds”.
